± gives the standard deviation of the averaged measurements.
System: Saccharomyces cerevisiae
Experiment: protein stability index of tFT-peptide fusion (C-terminal peptide) (PSI (0-1 scale)); higher = more stable (slower turnover)
Details: genetic background: wild type; temperature: 30 C
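Also: PSI is a weighted mean of sequencing reads over stability bins, variants kept only with over 10 reads, mCherry proximal and sfGFP distal, peptide attached via GGGS linker.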

| Sequence | protein stability index |
| --- | --- |
| WVWGWRRGLRGV | 0.657 ± 0.011 |
| WVWKRLTGQDGA | 0.668 ± 0.06 |
| WWGFGGVWRCGL | 0.6874 ± 0.0056 |
| WWHVLLGGCGCW | 0.753 ± 0.013 |
| WWLARNPLLSRL | 0.779 ± 0.026 |
| WWSAHIRAGASL | 0.672 ± 0.017 |
| WWWGGGRGGMGG | 0.734 ± 0.019 |
| WYVALGRFVGGS | 0.678 ± 0.049 |
| YACFRYEYNRLR | 0.679 ± 0.029 |
| YACRLAPGDLLA | 0.643 ± 0.0088 |
| YAIINISRESLD | 0.717 ± 0.062 |
| YAVGSAGLGVGL | 0.697 ± 0.1 |
| YAVIRILCSSRR | 0.5725 ± 0.0039 |
| YDMFCSYRFYPI | 0.636 ± 0.07 |
| YDRVVHASSTMW | 0.707 ± 0.013 |
| YEASSIPAWRYV | 0.529 ± 0.034 |
| YEGPSTLVYHVR | 0.915 ± 0.082 |
| YESIVLYPEMYL | 0.714 ± 0.2 |
| YFFQAFLLRTPL | 0.642 ± 0.018 |
| YFGGRGARGRER | 0.676 ± 0.027 |
| YFGGRGPRGRER | 0.714 ± 0.0095 |

| Sequence | protein stability index |
| --- | --- |
| YFGRGKLGVVRT | 0.705 ± 0.013 |
| YFKLLHSRPSVG | 0.675 ± 0.044 |
| YFLLLLLNSSTP | 0.528 ± 0.042 |
| YFLPLLCRSPSL | 0.707 ± 0.0095 |
| YFPGILFGAIFS | 0.668 ± 0.07 |
| YFTNSVPVGTVA | 0.501 ± 0.0076 |
| YGSQAYAIDSKP | 0.6369 ± 0.0009 |
| YGSSFRLVFSVT | 0.583 ± 0.0074 |
| YGVEWGAESNLY | 0.8019 ± 0.0068 |
| YHIGSINLTVRQ | 0.778 ± 0.083 |
| YHLISSVRLPSS | 0.731 ± 0.033 |
| YIDLLTRVCIRR | 0.6921 ± 0.0024 |
| YIKKTTPTIERG | 0.7157 ± 0.0039 |
| YIRSYRITKREE | 0.656 ± 0.035 |
| YISEKKKIEERK | 0.69 ± 0.032 |
| YKGYEIIGSVQG | 0.72 ± 0.023 |
| YKKLTRKKIQDK | 0.781 ± 0.0088 |
| YKRKTKMQRVSN | 0.627 ± 0.01 |
| YLEQALLDVQTD | 0.756 ± 0.021 |
| YLIGRIIYFFGR | 0.582 ± 0.0021 |
| YLLLPPPPPPSL | 0.722 ± 0.0098 |

| Sequence | protein stability index |
| --- | --- |
| YLNVVSSFYTCS | 0.684 ± 0.02 |
| YLPRREAALRRV | 0.7118 ± 0.0034 |
| YLSACLCGGFCS | 0.684 ± 0.047 |
| YLVSRRSGCDLE | 0.683 ± 0.051 |
| YMCPSFCLPLFP | 0.731 ± 0.1 |
| YNDGSNPYLSRS | 0.722 ± 0.065 |
| YNFLQSGADPNR | 0.721 ± 0.016 |
| YNLASGIEVPID | 0.664 ± 0.013 |
| YNSSSYCGGGCG | 0.6844 ± 0.0053 |
| YPARSPPSPLSL | 0.686 ± 0.025 |
| YPDYTSATGNIR | 0.666 ± 0.016 |
| YPHQRGRPDAHH | 0.71 ± 0.021 |
| YPLRCPITATHA | 0.616 ± 0.099 |
| YPPPRPDLPLLQ | 0.679 ± 0.016 |
| YPSRSPFLSLSC | 0.683 ± 0.028 |
| YPTSLLHLHSPP | 0.708 ± 0.044 |
| YQLEDSNEKVEN | 0.712 ± 0.085 |
| YRKAAGSQDRAV | 0.663 ± 0.018 |
| YRVPWIVESFVD | 0.751 ± 0.087 |
| YSGFYIRRGLTW | 0.689 ± 0.011 |
| YSILYRMQNSKI | 0.696 ± 0.021 |

| Sequence | protein stability index |
| --- | --- |
| YSKVGCRHSYHT | 0.669 ± 0.017 |
| YSPAYDHLRPDH | 0.7034 ± 0.0069 |
| YSPFCPSASPWA | 0.712 ± 0.023 |
| YSPSPPSFAFSS | 0.801 ± 0.079 |
| YSPVPPPTRPPL | 0.7069 ± 0.0017 |
| YSREVVGKQLFM | 0.693 ± 0.027 |
| YSRYAASYSMVV | 0.688 ± 0.021 |
| YTGRFDSSDIWY | 0.818 ± 0.057 |
| YTGVCEWRANVH | 0.689 ± 0.0096 |
| YTKTGRQRHHCR | 0.677 ± 0.011 |
| YTSELPVLARRH | 0.633 ± 0.021 |
| YVALSTGPLRTP | 0.6828 ± 0.0065 |
| YVELTGRITTKL | 0.716 ± 0.038 |
| YVEVIDERYPCV | 0.757 ± 0.021 |
| YVGLAAGEVGMG | 0.661 ± 0.02 |
| YVQFISFAGTRP | 0.724 ± 0.025 |
| YVSHLLMVGRFI | 0.616 ± 0.01 |
| YWLCITECHIRK | 0.541 ± 0.0092 |
| YYEVVCPLQHRI | 0.46 ± 0.16 |
| YYGCGAFGFSVR | 0.695 ± 0.014 |

From the supplement of paper PMC10724198
